System: Bacillus subtilis
Assay: cleaved RNA product abundance (RNA/gDNA barcode ratio) relative to median wild-type variant (ratio to wild type); higher = more accumulation of the downstream cleavage product
Method in brief: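 Cleaved product abundance for each construct is its RNA-to-gDNA barcode ratio, scaled to the median construct carrying the unmutated site. Cleaved RNA was isolated on a gel, reverse transcribed and barcode-sequenced, with genomic DNA barcodes sequenced alongside and UMIs collapsed. The reporters were truncated aprE or tetM mRNAs with barcoded, mutagenized RNase Y cleavage-site windows integrated into the B. subtilis chromosome, and cultures grew in LB at 37°C from OD600 0.0003 to 0.3.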

[1] = experiment (reporter, strain, medium): exp 8a: truncated aprE reporter, strain BJT201 with 2% xylose (RNase J1 expressed), cleavage site: glnRA (positions -5 to +31 mutated)
[2] = experiment (reporter, strain, medium): exp 2b: truncated aprE reporter, strain BJT200, cleavage site: cggR-gapA (positions -7 to +36 mutated)
[3] = experiment (reporter, strain, medium): exp 4a: truncated aprE reporter, strain BJT201 with 2% xylose (RNase J1 expressed), cleavage site: cggR-gapA (positions -7 to +36 mutated)
[4] = experiment (reporter, strain, medium): exp 6: tetM reporter, strain 168, cleavage site: cggR-gapA (positions -7 to +36 mutated)

For “CGACATGTCCCGCTTCTTTCATTAATCCGTTAGCAACTGTTTTGCCATATACATTTACATTTTAAGAGGAGGAAT”, the “cleaved RNA product abundance” value [1] was 0.355.

For “CGACATGTCCCGCTTCTTTCATTAATCCGTTAGCAACTGTTTTGCTATAAACATTTACGTTTTAAGAGGAGGAAT”, the “cleaved RNA product abundance” value [1] was 1.32.

In the case of “ACAGACGAAGGAGCCGCAAAGAAATTAATAAGGGATGAATAATCCCTCAATATAAATATCTCTCACTTATTTAAA”, the “cleaved RNA product abundance” value [2] is reported as 0.223 and the “cleaved RNA product abundance” value [3] is reported as 0.245.

“ACAGACGAAGGAGCCGCAAAGATGTTATTAAGGGATGAATAATCCCTAAATATAAATATCTCTCACTTATTTAAA” was tested, and the “cleaved RNA product abundance” value [3] was 1.11.

For “ACAGACGAAGGAGCCGCAAAGAAGTTATTAAGGGATCAATAGTCCCTCAATATAAATATCTCTCACTTATTTAAA”, the “cleaved RNA product abundance” value [3] was 0.828.

For “ACAGACGAAGGAGCCGCAAAGAAGATATTAAGGGATGAATAATCCCTTAATATAAATATCTCTCACTTATTTAAA”, the “cleaved RNA product abundance” value [3] was 0.192.

For “ACAGACGAAGGAGCCGCAAAGAAGTTATTAAGGGATGAACAATCCGTCAATATAAATATCTCTCACTTATTTAAA”, the “cleaved RNA product abundance” value [3] was 0.109.

For “ACAGACGAAGGAGCCGCAAAGAAGTCATTAAGGGATGAATAATGCCTCAATATAAATATCTCTCACTTATTTAAA”, the “cleaved RNA product abundance” value [3] was 0.13.

With “ACAGACGAAGGAGCCGCAAAGAAGTTATTAAGTAATGAATAACCCCTCAATATAAATATCTCTCACTTATTTAAA” the “cleaved RNA product abundance” value [2] was 0.084 and the “cleaved RNA product abundance” value [3] was 0.127.

For “CGACATGTCCCGCTTCTTTCATTAATCCGTTTGCAACTGTTTTGCTATATACATTTACCATTTAAGAGGAGGAAT”, the “cleaved RNA product abundance” value [1] was 0.88.

In the case of “ACAGACGAAGGAGCCGCAAAGAAGTTATTAAGGGCTGAATAATCCCTAAATATAAATATCTCTCACTTATTTAAA”, the “cleaved RNA product abundance” value [3] is reported as 0.537.

In the case of “ACAGACGAAGGAGCCGCAAAGAACTTATTAAGGGATGTATAATCCCTCAATATAAATATCTCTCACTTATTTAAA”, the “cleaved RNA product abundance” value [3] is reported as 0.637.

“CGACATGTCCCGCTTCTTTCATTAATCCGTTAGCAACTGTGTTGCTATATACATTTACCTTTTAAGAGGAGGAAT” was tested, and the “cleaved RNA product abundance” value [1] was 0.358.

For “ACAGACGAAGGAGCCGCAAAGAAGATATTAAGGGATGAATAATCACTCAATATAAATATCTCTCACTTATTTAAA”, the “cleaved RNA product abundance” value [2] was 0.145 and the “cleaved RNA product abundance” value [3] was 0.143.

“CGACATGTCCCGCTTCTTTCATTAATCCGTTAGCAACTGTATTACTATATACATTTACCTTTTAAGAGGAGGAAT” was tested, and the “cleaved RNA product abundance” value [1] was 0.835.

In the case of “ACAGACGAAGGAGCCGCAAAGAAGTTATTAAAGGATGAATAATCCATCAATATAAATATCTCTCACTTATTTAAA”, the “cleaved RNA product abundance” value [2] is reported as 0.141 and the “cleaved RNA product abundance” value [3] is reported as 0.178.

With “ACAGACGAAGGAGCCGCAAATAAGTTATTAAAGGATGAATAATCCCTCAATATAAATATCTCTCACTTATTTAAA” the “cleaved RNA product abundance” value [2] was 0.195, the “cleaved RNA product abundance” value [3] was 0.218 and the “cleaved RNA product abundance” value [4] was 0.19.

For “CGACATGTCCCGCTTCTTTCATTAATCCGTTAGCAACTATTTTGCTATATACATTTACCCTTTAAGAGGAGGAAT”, the “cleaved RNA product abundance” value [1] was 0.937.

In the case of “CGACATGTCCCGCTTCTTTCATTAATCCGTTAGCAACTGTTTTGCTATATACAACTACCTTTTAAGAGGAGGAAT”, the “cleaved RNA product abundance” value [1] is reported as 1.12.

For “ACAGACGAAGGAGCCGCAAAGAAGTTATTAAGGGATGAATAATCCCTCAATTTAAATATCTCTCACTTATTTAAA”, the “cleaved RNA product abundance” value [2] was 0.182, the “cleaved RNA product abundance” value [3] was 0.218 and the “cleaved RNA product abundance” value [4] was 0.195.

In the case of “ACAGACGAAGGAGCCGCAAAGAAGTTATTAAGCGATGAATAATCCCTCAATATAAATACCTCTCACTTATTTAAA”, the “cleaved RNA product abundance” value [3] is reported as 0.118.

With “CGACATGTCCCGCTTCTTTCATTAATCCGTGAGCAACTGTTTTGCTATACACATTTACCTTTTAAGAGGAGGAAT” the “cleaved RNA product abundance” value [1] was 0.0879.

With “ACAGACGAAGGAGCCGCAAAGAAGTTATTAAGGGATGAATAATCCCTCAATATAAATGTTTCTCACTTATTTAAA” the “cleaved RNA product abundance” value [3] was 0.369.

For “ACAGACGAAGGAGCCGCAAAGAAGTTATTAAGGGATGGATAATCCCTAAATATAAATATCTCTCACTTATTTAAA”, the “cleaved RNA product abundance” value [3] was 0.553.

In the case of “CGACATGTCCCGCTTCTTTCATTAATCCGTTAGCAACTGTTTCGCTTTATACATTTACCTTTTAAGAGGAGGAAT”, the “cleaved RNA product abundance” value [1] is reported as 0.267.

“CGACATGTCCCGCTTCTTTCATTAATACGTTAGCAACTGTTTTGCTATATACATTTACCTTTTAAGAGGAGGAAT” was tested, and the “cleaved RNA product abundance” value [1] was 0.97.

“CGACATGTCCCGCTTCTTTCATTACTCCGTTATGAACTGTTTTCCTATATACATTTACCTTTTAAGAGGAGGAAT” was tested, and the “cleaved RNA product abundance” value [1] was 0.316.

“ACAGACGAAGGAGCCTCAAAGAAGTTATTAAGGGATGAATAATCCCTCAATATAAATATCTCTCACTTATTTAAA” was tested, and the “cleaved RNA product abundance” value [4] was 1.25.

For “ACAGACGAAGGAGCCGCAAAGAAGTTATTAAGGGATGAATAATCCCTCTATATATATATCTCTCACTTATTTAAA”, the “cleaved RNA product abundance” value [3] was 0.418.

For “ACAGACGAAGGAGCCGCAAAGAAGTTGTAAAGGGATGAATAATCCCTCAATATAAATATCTCTCACTTATTTAAA”, the “cleaved RNA product abundance” value [2] was 0.272.

“CGACATGTCCCGCTTCTTTCATTAATCCGTTAGCAACTGTTGTGCTAAATACATTTACCTTTTAAGAGGAGGAAT” was tested, and the “cleaved RNA product abundance” value [1] was 0.266.

With “ACAGACGAAGGAGCCGCGAAGAAGTTATTAAGGGATAAATAATCCCTCAATATAAATATCTCTCACTTATTTAAA” the “cleaved RNA product abundance” value [3] was 0.679.

For “CGACATGTCCCGCTTCTTTCATTAATCCGTTAGCAAGCGTTTTGCTATATACATTTACCTTTTAAGAGGAGGAAT”, the “cleaved RNA product abundance” value [1] was 0.684.

With “CGACATGTCCCGCTTCTTTCATTAATACGTTAGCATCTGTTTTGCTATATACATTTACCTTTTAAGAGGAGGAAT” the “cleaved RNA product abundance” value [1] was 0.87.

“ACAGACGAAGGAGCCGCAAAGAAGTTATTAAGAAATGAATAATCCCTCAATATAAATATCTCTCACTTATTTAAA” was tested, and the “cleaved RNA product abundance” value [2] was 0.0992 and the “cleaved RNA product abundance” value [3] was 0.1.

“CGACATGTCCCGCTTCTTTCATTACTCCGTTAGCAACTGTTTGGCTATATACATTTACCTTTTAAGAGGAGGAAT” was tested, and the “cleaved RNA product abundance” value [1] was 0.644.

For “ACAGACGAAGGAGCCGCAAAGAAGTTATTAACCGATGAATAATCCCTCAATATAAATATCTCTCACTTATTTAAA”, the “cleaved RNA product abundance” value [2] was 0.0926 and the “cleaved RNA product abundance” value [3] was 0.0751.

For “ACAGACGAAGGAGCCGCAAAGAAGCTATTAAGGGATGAATAATCCCTGAATATAAATATCTCTCACTTATTTAAA”, the “cleaved RNA product abundance” value [3] was 0.343.

With “CGACATGTCCCGCTTCTTTCATTATTCCGTTAACAACTGTTTTACTATATACATTTACCTTTTAAGAGGAGGAAT” the “cleaved RNA product abundance” value [1] was 0.257.

In the case of “CGACATGTCCCGCTTCTTTCATTAATCCTTCAGCAACTGTTTTGCTATATACATTTACCTTTTAAGAGGAGGAAT”, the “cleaved RNA product abundance” value [1] is reported as 0.478.

In the case of “CGACATGTCCCGCTTCTTTCATTAATCCGTTAGCAACGGTTTTGATATATACATTTACCTTTTAAGAGGAGGAAT”, the “cleaved RNA product abundance” value [1] is reported as 0.515.

With “ACAGACGAAGGAGCCGCAAAGAAGTTATTAAGGGATGAATAATCCCACAATATAAACATCTCTCACTTATTTAAA” the “cleaved RNA product abundance” value [3] was 0.277.

In the case of “ACAGACGAAGGAGCCGCATAGAAGTTATTAAGGGATGAATAATCTCTCAATATAAATATCTCTCACTTATTTAAA”, the “cleaved RNA product abundance” value [2] is reported as 1.08.

With “CGACATGTCCCGCTTCTTTCATTAATCCGTTAGCAACTTTTTTGCTATATACATTTACTTTTTAAGAGGAGGAAT” the “cleaved RNA product abundance” value [1] was 1.37.

With “CGACATGTCCCGCTTCTTTCATTAATACGTTAGCAATTGTTTTGCTATATACATTTACCTTTTAAGAGGAGGAAT” the “cleaved RNA product abundance” value [1] was 0.823.

“ACAGACGAAGGAGCCGCAAAGAAGTTATTAAGGGATGACTAATCCCTCAATATAAATATCTCTCACTTATTTAAA” was tested, and the “cleaved RNA product abundance” value [2] was 0.603, the “cleaved RNA product abundance” value [3] was 0.679 and the “cleaved RNA product abundance” value [4] was 0.978.

For “ACAGACGAAGGAGCCGCAAAGAAGATATTAAGGGATGAATAATCCCTCAATATAAATGTCTCTCACTTATTTAAA”, the “cleaved RNA product abundance” value [2] was 0.338 and the “cleaved RNA product abundance” value [3] was 0.393.

Reference: the supplement of paper PMC11780869
